# Source: the nanobody polyreactivity screen of Harvey et al. (2022)
# Assay: yeast display, Sf9 membrane polyspecificity reagent, FACS + sequencing; frameworks hold sequencing errors
# Procedure, shortened: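 A synthetic nanobody library was expressed on Saccharomyces cerevisiae BJ5465 by galactose induction for 36–48 hours. The library was stained for 1 hour at 4 °C with 10% biotinylated, detergent-solubilized Sf9 membrane reagent and enriched with streptavidin microbeads before FACS. Low and high (top ~1%) gates were set on anti-HA fluorescence for expression and streptavidin fluorescence for reagent binding, and each polyreactivity label reflects the gate of origin.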
row,Sequence,polyreactivity (PSR sort gate)
1,QVQLVESGGGVVQAGGSLRISCAATGFIFRWYAMGWYIQAPGKERELVASINWSGSRTNYADPVKGRFTISRDNAKNTVYLQMNSLKPEDTAVYYCATYGTTSGYDSWGQGTQVTVSS,high polyreactivity
2,QVHLVESGGGLVQAGGSLRLSCAASGYTDYAMGWYRKAPGKERELVATITSGDNTNYADSVKGRFTSSRDNAKNTVYLQMNSLKAEDTAVYYCAAVYGLHYGIDYWGQGTQVNVSS,low polyreactivity
3,QVQLVESGGGLVHAGGSLRLSCAASGRTFATNTIGWYRQAPGKERELVAAITFSGGSTYYADSVKGRFTISRDTAKIPRYLQMNCLKPEDNEVYYCNVRSPYYSYRYRYGYWGQGSQVTVSS,high polyreactivity
4,QVKLVESGGGLVQAGGSLRLSCAPSGFTFFTYAMGWYRQAPGKERVLVAAITSGGSTNYADSVKGRFTISRDNAKNTVDLQMNSLKPEDTAVYYCAKLAYSDATTVYGYQRSDYWGQGTQVTVSS,low polyreactivity
5,QVQLVESGGGLVQAGGSLRLSCAASGRTFTANAMGWYRQAPGKERELVAGITSRGGGTYYADSVKGRFTISRDNAKNTVYLQMNSLKPEDTAVYYCAAPYNGGGVHSYWEYDYWGQGTQVSVSS,high polyreactivity
6,QVQLVESGGGLVQAGGSLRLSCAASGNIFGYNAMGWYRQAPGKERELVAAITSDGRTYYADSVKGRFTISRDNAKNTVYLQMNSLKPEDTAVYYCAADSSGYYWFNYWGQGTQVTVSS,low polyreactivity
7,QVQLVESGGGLVQAGGSLPLRCAASGLILEYYAMGWYRQAPGKERELVAAITRGGSTYYADSVKWRFTISRDNAKNTVYLQMNSLKPEDTAVYYCAADRYYYEYDYWGQGTQVNVSS,low polyreactivity
8,QVQLVESGGGLVQAGGSLRLSCAASGIIFAGNAMGWYRQAPGKERELVAAITRSTGSTYYADSVKGRFTISRDNAKNTVYLLMNSLKPEDTEVYYCNAGHFAHHHGYYRSKYDYWGQGTQVTVSS,low polyreactivity
9,QDQLVESGGGLVQAGGSLRLSFAASGRIIYYNAMGWYRQAPGKERELVAAISFSDGSTYYADSVKGRFTISRDNAKKTVYLQMNSLKPEDTAVYYCAADIGYYYDYWGQGTLVTVSS,low polyreactivity
10,QVQLVESGGGLVQAGGSLRLSCAASGSNLGLYAMGWYRQAPGKERELVAAISSGGSTYYADSVKGRFTISRDNAKNTVYLQMNSLKPEDTAVYYCAADLSLSRVVFGDYDYWGQGTQVTVSS,low polyreactivity
11,QVQLVESGGGLVQAGGSHGLSCAASGSTFYYNAMGWYRPAPGKERELVARISRSGGSTYADSVKGRFTISRDNAKNTVYLLMNSLKPEDTAVYYCNADAYGTPEFTSYAVRYDHWGQGTQETVSS,low polyreactivity
12,QVQLVESGRGLVQAGGSLRLSCAASGRIFRVNAMGWYRQAPGKERELVAAISWGGGSTYYADSVKGRFTISRDNAKNTVYLQMNSLKREDTAVYYCATTLVKSQSRYYYWGQGTQVTVSS,high polyreactivity
13,QVHLVESGGGLVQAGGSLRLSCAASGGTFRVYAMGWYRQAPGKEWELVASISNGGSTNYADSEKGRFTISRDNAKNTVYLQMNSLKPEDTAVYYCAADPSYEVWYYDSPEYNYWGQGTQVTVSS,low polyreactivity
14,QVQLVESGGGLVQAGGSLRFSCAASGFIFSNYAMGWYRQAPGKERELVAAITSGGSTNYADSVKGRFTISRDNAKNTVYLQMNSLKPEDTAVYYCAAERGDTAYRKYDYWGQGTQVTVSS,low polyreactivity
15,QVQLVESGGGLVQAGGSLRLSCAASGSIFVDTAMGWYRQAPGKERELVAAINWSGGSTYYADSVKGRFTISRDNAQNTVYLQMNSLKPEDTAVYYCYAARPGQTWDEHSWYEYWGQGTQVTVSS,low polyreactivity
16,QVQLVESGGGLVQAGGSLRLSCAASGATFERNAMGWYRQAPGKERELVAAITGSGGRTYYADSVKGRFTISRDNAKNTVYLQMNSLKPEDTAVYYCAKDTYYPSSRYNRYYYWGQGTQVTVSS,high polyreactivity
17,QVQLVESGGGLVQAGGSLRLSCAASGYIINYNAMGWYRQAPGKERELVAAISSRGGSTYYADSVKGRFTISRDNAKNTVYLQMNSLKPEDTAVYYCNARYYSWYQRYDRRRGYDYWGQGTQVTVSS,low polyreactivity
